Residue numbers refer to the chain shown, from its start. In names and notes the source's numbering stands.

Test in all cases: colorimetric DTNB acetylation assay, Michaelis-Menten
Common to all, as to details: 1.5 mM MVNALE peptide, 30 °C, reaction buffer pH 7.5

Substrate in series [1]: CC(=O)SCCNC(=O)CCNC(=O)[C@H](O)C(C)(C)COP(=O)(O)OP(=O)(O)OC[C@H]1O[C@@H](n2cnc3c(N)ncnc32)[C@H](O)[C@@H]1OP(=O)(O)O
It counts as biochemical, Thermochaetoides thermophila. From the text:
colorimetric DTNB acetylation assay, Michaelis-Menten on CtNaa50_82-445 (ΔN)

Substrate in series [2]: CC(=O)SCCNC(=O)CCNC(=O)[C@H](O)C(C)(C)COP(=O)(O)OP(=O)(O)OC[C@H]1O[C@@H](n2cnc3c(N)ncnc32)[C@H](O)[C@@H]1OP(=O)(O)O
It counts as biochemical, Neurospora crassa. From the text: colorimetric DTNB acetylation assay, Michaelis-Menten on NcNaa50_93-287 (GNAT)

Substrate in series [3]: CC(=O)SCCNC(=O)CCNC(=O)[C@H](O)C(C)(C)COP(=O)(O)OP(=O)(O)OC[C@H]1O[C@@H](n2cnc3c(N)ncnc32)[C@H](O)[C@@H]1OP(=O)(O)O
It counts as biochemical, Thermochaetoides thermophila. The source says: colorimetric DTNB acetylation assay, Michaelis-Menten on CtNaa50_82-289 (GNAT)
This is another data set of the same source.

Substrate in series [4]: CC(=O)SCCNC(=O)CCNC(=O)[C@H](O)C(C)(C)COP(=O)(O)OP(=O)(O)OC[C@H]1O[C@@H](n2cnc3c(N)ncnc32)[C@H](O)[C@@H]1OP(=O)(O)O
Type of series: biochemical, Thermochaetoides thermophila. This is another data set of the same source.

Substrate in series [5]: CC(=O)SCCNC(=O)CCNC(=O)[C@H](O)C(C)(C)COP(=O)(O)OP(=O)(O)OC[C@H]1O[C@@H](n2cnc3c(N)ncnc32)[C@H](O)[C@@H]1OP(=O)(O)O
Type of series: biochemical, Thermochaetoides thermophila. From the text:
colorimetric DTNB acetylation assay, Michaelis-Menten on CtNaa50_1-289 (ΔC)
The source holds these as a separate data set.

B1: CtNaa50_82-445 (ΔN) (Thermochaetoides thermophila DSM 1495) (protein)
chain: LPSGASIVPLAQEHIPALRRINSLLLPVAYPDSFYHKALDPLASGLFSRAILWQDTNADPPKVVGGLICRLEPNPFLSVTGEPTPVQLPADQPQRAPQAPKDTPFHAIYIQSLALLSPYRSLGLAAAALDHIIATAAVLPAAGSNIDARTIYAHVWTENEEGLKWYESRGFVKEGGEPVKGYYFKLRPDTAWIVRRHIGESAKLNDVVSQPQPQPQQQLQQQPAVDIAPTATSVLAAAVNLPPITSTPPPPSTGSKLPTSNTSTLASRPPPPLRSTSSSTSSATSLSYQNTRPPTEWNDIPPDMVAGPPIAARGRRVTAAAASDPAANGCSGTGSGASSRSASAAAGTGKKRKGRDYPTAAFGN
notes: N-terminal deletion, residues 82-445, E. coli
Turning to B1, in series [1], the Km (commonly the concentration of substrate that gives half-maximal velocity) came out at 41.2 ± 6.1 µM; the kcat (in general, the number of substrate molecules converted per active site and unit of time at saturation) worked out at 0.398 ± 0.0167 s⁻¹; the kcat/Km (commonly the turnover number divided by the Michaelis constant) amounted to 9670 ± 1500 M⁻¹ s⁻¹.

B2: NcNaa50_93-287 (GNAT) (Neurospora crassa OR74A) (protein)
chain: SQANIVAVAEHHIAALRRINSLLLQVAYPDAFYAKVLEPLASGLFSRVILWSDDPTSEPKVIGGVVCRLEPNPFLDPNGQPQAPRIQQNQPGPSAPIDYPYHAIYIQSLALLSPYRSLGLAAAALEHIIASASILPAAGSTINVRTIYAHVWTENEEGLQWYGQRGFRTEGRDPVRGYYFKLRPDTAWIVRRDIG
notes: GNAT domain, residues 93-287, C-terminal His6, E. coli; full-length 494 residues
Turning to B2, in series [2], the Km was determined as 146.9 ± 12.1 µM, the turnover number (kcat) was 1.6 ± 0.05 s⁻¹ and the kcat/Km worked out at 10800 ± 1000 M⁻¹ s⁻¹.

B3: CtNaa50_82-289 (GNAT) (Thermochaetoides thermophila DSM 1495) (protein)
chain: LPSGASIVPLAQEHIPALRRINSLLLPVAYPDSFYHKALDPLASGLFSRAILWQDTNADPPKVVGGLICRLEPNPFLSVTGEPTPVQLPADQPQRAPQAPKDTPFHAIYIQSLALLSPYRSLGLAAAALDHIIATAAVLPAAGSNIDARTIYAHVWTENEEGLKWYESRGFVKEGGEPVKGYYFKLRPDTAWIVRRHIGESAKLNDVV
notes: GNAT domain, residues 82-289, C-terminal His6 kept, E. coli; full-length 445 residues; one molecule per asymmetric unit
With B3, in series [3], the Km worked out at 52.7 ± 8.6 µM, the kcat was 0.607 ± 0.03 s⁻¹ and the kcat/Km was determined as 11500 ± 2000 M⁻¹ s⁻¹.

B4: CtNaa50_82-289 (GNAT) (Thermochaetoides thermophila DSM 1495; Y190F) (protein)
chain: B3 chain with Y109F
notes: as for B3
Regarding B4, in series [3], the Km was determined as 22.0 ± 4.0 µM, the kcat was determined as 0.0933 ± 0.005 s⁻¹ and the kcat/Km was 4330 ± 833 M⁻¹ s⁻¹.

B5: CtNaa50_82-289 (GNAT) (Thermochaetoides thermophila DSM 1495; H235A) (protein)
chain: B3 chain with H154A
notes: as for B3
On to B5, for which, in series [3], the Km was 15.3 ± 3.1 µM, the kcat worked out at 0.0233 ± 0.00167 s⁻¹ and the kcat/Km is 1500 ± 333 M⁻¹ s⁻¹.

B6: CtNaa50_1-289/CtDLC1 complex (Thermochaetoides thermophila DSM 1495) (protein)
chain: MSASRQASIKSFFQPRGLPTHNTTFSSKTPPTDRATQTTTPPPVPPPAPAPPSHQPAAPEPITISVRLPPGGVPNLPSPPSLPSGASIVPLAQEHIPALRRINSLLLPVAYPDSFYHKALDPLASGLFSRAILWQDTNADPPKVVGGLICRLEPNPFLSVTGEPTPVQLPADQPQRAPQAPKDTPFHAIYIQSLALLSPYRSLGLAAAALDHIIATAAVLPAAGSNIDARTIYAHVWTENEEGLKWYESRGFVKEGGEPVKGYYFKLRPDTAWIVRRHIGESAKLNDVV
notes: CtNaa50 1-289 (S. cerevisiae, His-tag cut by TEV) co-purified with untagged CtDLC1 (E. coli); with putative dynein light chain 1 protein
Take B6: in series [4], the Km worked out at 30.4 ± 6.3 µM and the kcat was 0.357 ± 0.02 s⁻¹.

B7: CtNaa50_1-289 (ΔC) (Thermochaetoides thermophila DSM 1495) (protein)
chain: B6 chain
notes: C-terminal deletion, residues 1-289, N-terminal His-tag removed by TEV, S. cerevisiae
With B7, in series [5], the Km amounted to 31.9 ± 4.4 µM, the kcat amounted to 0.272 ± 0.01 s⁻¹ and the kcat/Km was 8500 ± 1170 M⁻¹ s⁻¹.
